Measurements taken from article PMC4118585.

Target: HCMV glycoprotein M (gM, UL100) in HCMV-infected cells (HCMV strain AD169)
Test: FRET or BRET

HCMV glycoprotein M (gM, UL100) in HCMV-infected cells (HCMV strain AD169), sequence (P16733 whole entry): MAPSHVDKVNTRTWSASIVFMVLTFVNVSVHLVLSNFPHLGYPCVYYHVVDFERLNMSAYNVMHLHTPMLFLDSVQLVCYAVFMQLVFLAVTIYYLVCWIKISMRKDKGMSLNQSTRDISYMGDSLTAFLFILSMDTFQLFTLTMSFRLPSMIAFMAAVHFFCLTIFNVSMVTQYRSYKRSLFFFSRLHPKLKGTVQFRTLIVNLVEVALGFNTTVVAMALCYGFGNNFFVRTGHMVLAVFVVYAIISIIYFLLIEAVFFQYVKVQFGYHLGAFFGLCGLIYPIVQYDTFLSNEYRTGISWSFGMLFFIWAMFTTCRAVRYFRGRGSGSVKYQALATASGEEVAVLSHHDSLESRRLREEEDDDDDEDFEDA

Binder | average FRET efficiency
myc-tagged FIP4 (FIP4-myc), full length (natural protein) MAGGAGWSGAPAALLRSVRRLREVFEVCGRDPDGFLRVERVAALGLRFGQGEEVEKLVKYLDPNDLGRINFKDFCRGVFAMKGCEELLKDVLSVESAGTLPCAPEIPDCVEQGSEVTGPTFADGELIPREPGFFPEDEEEAMTLAPPEGPQELYTDSPMESTQSLEGSVGSPAEKDGGLGGLFLPEDKSLVHTPSMTTSDLSTHSTTSLISNEEQFEDYGEGDDVDCAPSSPCPDDETRTNVYSDLGSSVSSSAGQTPRKMRHVYNSELLDVYCSQCCKKINLLNDLEARLKNLKANSPNRKISSTAFGRQLMHSSNFSSSNGSTEDLFRDSIDSCDNDITEKVSFLEKKVTELENDSLTNGDLKSKLKQENTQLVHRVHELEEMVKDQETTAEQALEEEARRHREAYGKLEREKATEVELLNARVQQLEEENTELRTTVTRLKSQTEKLDEERQRMSDRLEDTSLRLKDEMDLYKRMMDKLRQNRLEFQKEREATQELIEDLRKELEHLQMYKLDCERPGRGRSASSGLGEFNARAREVELEHEVKRLKQENYKLRDQNDDLNGQILSLSLYEAKNLFAAQTKAQSLAAEIDTASRDELMEALKEQEEINFRLRQYMDKIILAILDHNPSILEIKH | 27%
myc-tagged FIP3 (FIP3-myc) (natural protein) MASAPPASPPGSEPPGPDPEPGGPDGPGAAQLAPGPAELRLGAPVGGPDPQSPGLDEPAPGAAADGGARWSAGPAPGLEGGPRDPGPSAPPPRSGPRGQLASPDAPGPGPRSEAPLPELDPLFSWTEEPEECGPASCPESAPFRLQGSSSSHRARGEVDVFSPFPAPTAGELALEQGPGSPPQPSDLSQTHPLPSEPVGSQEDGPRLRAVFDALDGDGDGFVRIEDFIQFATVYGAEQVKDLTKYLDPSGLGVISFEDFYQGITAIRNGDPDGQCYGGVASAQDEEPLACPDEFDDFVTYEANEVTDSAYMGSESTYSECETFTDEDTSTLVHPELQPEGDADSAGGSAVPSECLDAMEEPDHGALLLLPGRPHPHGQSVITVIGGEEHFEDYGEGSEAELSPETLCNGQLGCSDPAFLTPSPTKRLSSKKVARYLHQSGALTMEALEDPSPELMEGPEEDIADKVVFLERRVLELEKDTAATGEQHSRLRQENLQLVHRANALEEQLKEQELRACEMVLEETRRQKELLCKMEREKSIEIENLQTRLQQLDEENSELRSCTPCLKANIERLEEEKQKLLDEIESLTLRLSEEQENKRRMGDRLSHERHQFQRDKEATQELIEDLRKQLEHLQLLKLEAEQRRGRSSSMGLQEYHSRARESELEQEVRRLKQDNRNLKEQNEELNGQIITLSIQGAKSLFSTAFSESLAAEISSVSRDELMEAIQKQEEINFRLQDYIDRIIVAIMETNPSILEVK | < 2%
